[ ]: non-standard residue; d: D form. Hyp = O=C(O)[C@@H]1C[C@@H](O)CN1
Key:
[1] = target: AAP receptors in CHO cells; assay: in situ displacement of [125I]AAP10 on intact CHO cells
[2] = target: [125I]AAP10 binding site in murine heart tissue preparations; assay: displacement of 0.8 nM [125I]AAP10 from murine heart filtrate
[3] = target: AAP receptors in CHO cells; assay: cell-based or functional assay
[4] = target: [125I]AAP10 binding site in murine heart tissue preparations; assay: displacement of 0.8 nM [125I]AAP10 from murine heart membranes

“Ac-D-Tyr(3,5-di-I)-D-Pro-D-Hyp-Gly-D-Ala-Gly-NH2 (Compound 24) (peptide)” gave an IC50 [1] of 65 nM.

For “Ac-D-Tyr-D-Pro-D-4Hyp-Gly-D-Ala-Gly-NH2 (Compound 2) (peptide)”, the IC50 [2] was 3.6 nM, the Inhibition of forskoline stimulated cAMP formation in CHO cells, EC50 [3] was 6.2 nM and the IC50 [1] was 0.5 nM. For the same molecule, the IC50 [4] was 1.2 nM.

B1: H-Gly-Pro-Hyp-Gly-Ala-Gly-OH (AAP, antiarrhythmic peptide) (peptide)
chain: H-GP[Hyp]GAG-OH
SMILES: C[C@H](NC(=O)CNC(=O)[C@@H]1C[C@@H](O)CN1C(=O)[C@@H]1CCCN1C(=O)CN)C(=O)NCC(=O)O
B1 was tested, and the IC50 [2] was 1.2 nM, the Inhibition of forskoline stimulated cAMP formation in CHO cells, EC50 [3] was 53 nM and the IC50 [1] was 0.8 nM.

B2: ASAL(mono-iodo)-Pro-Hyp-Gly-Ala-Gly-NH2 (Compound 32) (peptide)
chain: {ASAL(3-I)}-P[Hyp]GAG-NH2
With B2 the IC50 [1] was 0.5 nM.

B3: H-Gly-Ala-Gly-Hyp-Pro-Tyr-NH2 (AAP10) (peptide)
chain: H-GAG[Hyp]PY-NH2
Molecule B3 has an IC50 [2] of 1.2 nM, an Inhibition of forskoline stimulated cAMP formation in CHO cells, EC50 [3] of 11 nM and an IC50 [1] of 130 nM.

Source: US20030092609A1
